# Measurements from PMC5014518.
# T1: 2x-p19-TAT (Carnation Italian Ringspot Virus, UniProt Q66104 1-172)
# T1 sequence: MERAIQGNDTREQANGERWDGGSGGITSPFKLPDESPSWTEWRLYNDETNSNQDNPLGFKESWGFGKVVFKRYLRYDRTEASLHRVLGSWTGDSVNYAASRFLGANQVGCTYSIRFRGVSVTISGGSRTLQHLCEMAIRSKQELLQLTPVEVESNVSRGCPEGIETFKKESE
# Biological target: T1, 2x-p19-TAT
# Assay: EMSA
binder,measurement,value
"Cy3-CSK siRNA (dsRNA, 3' dTdT on both strands (DNA residues written TT)) RNA 1: CUACCGCAUCAUGUACCAUTT RNA 2: AUGGUACAUGAUGCGGUAGTT",Kd,440 ± 160 pM
